68 substances from the Human Domainome abundance scans (Beltran et al. 2025) can be followed below.

± gives the uncertainty stated by the source.

The data set in a line: abundance fitness (aPCA) (normalised: wild type 0, dead -1); higher = more abundant; growth selection in yeast, the domain comes from the species named. The conditions noted are these: Homo sapiens.
As to “Transcriptional activator Myb S187W, P10242”, the abundance fitness was -0.108 ± 0.07. With “Transcriptional activator Myb S202C, P10242”, the abundance fitness was -0.108 ± 0.1. Consider “Transcriptional activator Myb S202D, P10242”, for which the abundance fitness was -0.069 ± 0.087. For the substance “Transcriptional activator Myb S202E, P10242”, the abundance fitness was 0.042 ± 0.073. “Transcriptional activator Myb S202F, P10242” yielded an abundance fitness of -0.045 ± 0.093.

“Transcriptional activator Myb S202G, P10242” displayed an abundance fitness of 0.027 ± 0.047. On to “Transcriptional activator Myb S202I, P10242”, for which the abundance fitness was -0.021 ± 0.19. For “Transcriptional activator Myb S202L, P10242”, the abundance fitness is -0.181 ± 0.073. “Transcriptional activator Myb S202M, P10242” had an abundance fitness of -0.186 ± 0.12.

“Transcriptional activator Myb S202N, P10242” showed an abundance fitness of -0.237 ± 0.18. Substance “Transcriptional activator Myb S202P, P10242” displayed an abundance fitness of -0.061 ± 0.14. “Transcriptional activator Myb S202Q, P10242” came in with an abundance fitness of -0.102 ± 0.16. “Transcriptional activator Myb S202R, P10242” came in with an abundance fitness of -0.144 ± 0.063.

“Transcriptional activator Myb S202T, P10242” displayed an abundance fitness of 0.012 ± 0.11. “Transcriptional activator Myb S202V, P10242” came in with an abundance fitness of -0.001 ± 0.064.

In the case of “Transcriptional activator Myb S202W, P10242”, the abundance fitness was -0.211 ± 0.083. “Transcriptional activator Myb S202Y, P10242” had an abundance fitness of -0.218 ± 0.17. Substance “Transcriptional activator Myb S203A, P10242” displayed an abundance fitness of -0.01 ± 0.085.

In turn, “Transcriptional activator Myb S203C, P10242” yielded an abundance fitness of -0.112 ± 0.094. The figure for “Transcriptional activator Myb S203D, P10242” is -0.079 ± 0.15; for “Transcriptional activator Myb S203E, P10242” it is 0.079 ± 0.16; for “Transcriptional activator Myb S203F, P10242” it is -0.29 ± 0.1.

As for “Transcriptional activator Myb S203G, P10242”, the abundance fitness was 0.072 ± 0.066. On to “Transcriptional activator Myb S203H, P10242”, for which the abundance fitness was -0.264 ± 0.12. “Transcriptional activator Myb S203K, P10242” had an abundance fitness of 0.14 ± 0.19. With “Transcriptional activator Myb S203L, P10242”, the abundance fitness was -0.042 ± 0.094. The figure for “Transcriptional activator Myb S203M, P10242” is -0.054 ± 0.15; for “Transcriptional activator Myb S203N, P10242” it is -0.108 ± 0.1. “Transcriptional activator Myb S203P, P10242” registered an abundance fitness of -0.139 ± 0.12. With “Transcriptional activator Myb S203Q, P10242”, the abundance fitness amounted to 0.061 ± 0.13. For “Transcriptional activator Myb S203R, P10242” the value was -0.145 ± 0.074. “Transcriptional activator Myb S203T, P10242” displayed an abundance fitness of 0.006 ± 0.1. Turning to “Transcriptional activator Myb S203V, P10242”, the abundance fitness came to 0.055 ± 0.082. For “Transcriptional activator Myb S203W, P10242” the value was -0.015 ± 0.097. Regarding “Transcriptional activator Myb S203Y, P10242”, the abundance fitness was -0.113 ± 0.15. For “Transcriptional activator Myb T145A, P10242” the value was -0.066 ± 0.061; for “Transcriptional activator Myb T145C, P10242”, -0.218 ± 0.16. For “Transcriptional activator Myb T145D, P10242”, the abundance fitness stood at 0.144 ± 0.15. On to “Transcriptional activator Myb T145E, P10242”, for which the abundance fitness was found to be 0.055 ± 0.12. “Transcriptional activator Myb T145F, P10242” returned an abundance fitness of -0.123 ± 0.25. Regarding “Transcriptional activator Myb T145G, P10242”, the abundance fitness was -0.091 ± 0.061.

In turn, “Transcriptional activator Myb T145I, P10242” yielded an abundance fitness of 0.228 ± 0.14.

Substance “Transcriptional activator Myb T145L, P10242” yielded an abundance fitness of -0.122 ± 0.13. As to “Transcriptional activator Myb T145M, P10242”, the abundance fitness turned out to be 0.117 ± 0.12.

“Transcriptional activator Myb T145N, P10242” came in with an abundance fitness of -0.179 ± 0.26. For “Transcriptional activator Myb T145P, P10242” the value was -0.212 ± 0.12; for “Transcriptional activator Myb T145Q, P10242”, -0.171 ± 0.15.

The substance “Transcriptional activator Myb T145R, P10242” displayed an abundance fitness of -0.232 ± 0.071. Substance “Transcriptional activator Myb T145S, P10242” registered an abundance fitness of -0.042 ± 0.077. Turning to “Transcriptional activator Myb T145V, P10242”, the abundance fitness was -0.007 ± 0.068. For “Transcriptional activator Myb T145W, P10242” the value was -0.318 ± 0.1; for “Transcriptional activator Myb T145Y, P10242”, -0.114 ± 0.23. “Transcriptional activator Myb T148A, P10242” registered an abundance fitness of -0.286 ± 0.039. “Transcriptional activator Myb T148D, P10242” showed an abundance fitness of -0.348 ± 0.043.

For the substance “Transcriptional activator Myb T148E, P10242”, the abundance fitness is -0.443 ± 0.065. On to “Transcriptional activator Myb T148F, P10242”, for which the abundance fitness is -0.726 ± 0.046.

In turn, “Transcriptional activator Myb T148G, P10242” came in with an abundance fitness of -0.31 ± 0.038. As to “Transcriptional activator Myb T148H, P10242”, the abundance fitness was -0.556 ± 0.045. The substance “Transcriptional activator Myb T148K, P10242” displayed an abundance fitness of -0.212 ± 0.057.

“Transcriptional activator Myb T148L, P10242” came in with an abundance fitness of -0.505 ± 0.036. The substance “Transcriptional activator Myb T148M, P10242” yielded an abundance fitness of -0.462 ± 0.052.

In turn, “Transcriptional activator Myb T148N, P10242” yielded an abundance fitness of -0.271 ± 0.043.

With “Transcriptional activator Myb T148P, P10242”, the abundance fitness was -0.597 ± 0.045. On to “Transcriptional activator Myb T148Q, P10242”, for which the abundance fitness is -0.437 ± 0.055. Turning to “Transcriptional activator Myb T148R, P10242”, the abundance fitness is -0.307 ± 0.035.

For “Transcriptional activator Myb T148S, P10242”, the abundance fitness is -0.004 ± 0.034. The substance “Transcriptional activator Myb T148W, P10242” yielded an abundance fitness of -0.901 ± 0.058. For the substance “Transcriptional activator Myb T148Y, P10242”, the abundance fitness is -0.766 ± 0.05.
